Experimental data as given in patent US20130189255A1, “FUSIONS AND CONJUGATES OF INSULINOTROPIC AGENTS” (GLAXO GROUP LIMITED, priority 2008, published 2013).
Like-named read-outs stand apart in the source and are kept apart here.

Legend:
[1] = parameters: species or system cynomolgus monkey (Macaca fascicularis); conditions: cynomolgus monkey, in vivo, 0.1 mg/kg
Description: Briefly, protein was purified using batch absorption to protein L-agarose affinity resin followed by elution with glycine at pH 2.0 and neutralisation woth Tris PH 8.0. This was followed by ion exchange chromotography on a Resource S column using a 0-1M salt gradient in 20 mM acetate pH5.0. Fractions containing the desired protein were then combined and buffer exchanged into 100 mM NaCl, 20 mM citrate pH6.2. Protein was extensively QCed (including SDS-PAGE, mass spec, activity assay:GLP-1R-BA, pH check, osmolarity check), filter sterilised and endotoxin removed. Protein with confimed low endotoxin (<0.05 EU/mg protein) was then used for the in vivo study. Six female cynomolgus monkeys (Macaca fascicularis; Charles River Laboratories BRF, Houston, Tex., Primate Products, Miami, Fla. and/or Covance Research Products, Inc., Alice, Tex.) were used in this study. The monkeys were approximately 2 to 9 years old (with a body weight range of approximately 2 to 5 kilograms) at initiation of dosing. The monkeys were housed individually in stainless-steel cages in an environmentally controlled room(s) (64 F to 84 F; 30 to 70% relative humidity) with a 12-hour light/dark cycle. The female monkeys were offered approximately 6 biscuits twice daily of Monkey Diet #5038 (PMI Nutrition International, Richmond, Ind.) and a daily allotment of fresh fruit. […] Dose was at 0.1 mg/Kg. On the days of dosing, the first feeding occurred within approximately 1 hour post dose for each monkey (extended up to 2.5 hours post dose if study-related procedures required animals to be out of their local housing for an extended period of time). The second feeding was no sooner then two hours following the first feeding. For the purpose of environmental enrichment, additional fruit, legume and/or vegetable (e.g., grapes, baby carrots, peanuts) was provided to each monkey at or around the time of viability check or as a method of reward after acclimation or study-related procedures. Filtered tap water (supplied by Aqua Pennsylvania, Inc. and periodically analyzed) was available ad libitum. Plasma samples (approx 2 ml) were collected from the femoral vessel at predose (0 hour) and nominally at 5 minutes (iv group only), 0.5, 4, 8, 24, 48, 96, 144, 192, 288, 336, 504 and 672 hours after dosing. (PK samples from one of the animals in the iv dose group were only collected to 24 h so this animal has been excluded from the PK fitting). Analysis of samples was by mass spectrometry, and fitting of the data was using WinNonLin fitting software. PK parameters were as follows for iv administration (n=2): T1/2 67 h, MRT 46 h, Vz 327 ml/Kg and Cl 3.3 ml/hr/Kg; and for sc administration (n=3): T1/2 68 h, MRT 98 h, Vz 306 ml/Kg and Cl 3.1 ml/hr/Kg. Bioavailability was calculated as 99%.

[2] = biological target: RSA (Rattus norvegicus, UniProt P02770); test: Surface plasmon resonance (Biacore, streptavidin chip with biotinylated serum albumin), RSA; format: binding; conditions: Biacore SA chip, HBS-EP buffer; read-out: Affinity (KD) to RSA
RSA, sequence (P02770 25-608): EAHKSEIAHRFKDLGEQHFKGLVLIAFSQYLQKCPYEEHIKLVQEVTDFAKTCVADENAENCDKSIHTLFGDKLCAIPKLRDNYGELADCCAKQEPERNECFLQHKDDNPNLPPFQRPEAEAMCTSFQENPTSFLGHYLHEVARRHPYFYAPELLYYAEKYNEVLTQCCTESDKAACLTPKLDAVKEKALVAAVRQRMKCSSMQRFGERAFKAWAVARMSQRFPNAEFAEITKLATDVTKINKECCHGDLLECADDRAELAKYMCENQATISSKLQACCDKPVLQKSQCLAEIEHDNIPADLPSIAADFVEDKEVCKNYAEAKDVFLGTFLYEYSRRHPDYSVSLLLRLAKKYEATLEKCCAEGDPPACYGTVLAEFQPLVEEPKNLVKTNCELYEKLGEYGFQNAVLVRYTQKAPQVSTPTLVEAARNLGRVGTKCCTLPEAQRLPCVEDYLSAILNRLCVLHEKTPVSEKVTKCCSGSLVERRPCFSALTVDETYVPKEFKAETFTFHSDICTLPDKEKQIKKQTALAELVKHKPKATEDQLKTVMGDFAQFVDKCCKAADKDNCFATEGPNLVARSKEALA
Description: The analysis was performed using a streptavidin chip (SA) coated with biotinylated serum albumin. 200-1000 resonance units (RUs) of each serum albumin was immobilised on the chip. Flow cell 1 was uncoated, flow cell 2 was coated with HSA, flow cell 3 was coated with RSA and flow cell 4 was coated with CSA. A range of concentrations of fusion was prepared (in the range 15.6 nM to 2 μM by dilution into BIACORE HBS-EP buffer (0.01M HEPES, pH7.4, 0.15M NaCl, 3 mM EDTA, 0.005% surfactant P20) and flowed across the BIACORE chip.
Affinity (KD) was calculated from the BIACORE traces by fitting on-rate and off-rate curves to traces generated by concentrations of dAb in the region of the KD.

[3] = system: diet induced obese (DIO) mice; test: Diet induced obese (DIO) mouse model of obesity; format: in vivo; conditions: 0.01, 0.1, 1 mg/Kg sc, 10 days, compared to DOM7h-14 control
Description: This may be predictive for humans. Male C57B1/6 mice (purchased from Taconic) were fattened on 60% kcal high fat irradiated diet for 12 wks and then transferred to the in-house facility. Upon arrival, the mice were individually housed on alpha-dri bedding in a temperature and humidity controlled room (70-72° F., Humidity=48-50%, 5 AM/5 PM light cycle). The diet was changed to 45% high fat diet and the animals acclimated for 18 days. Prior to administration of test compound, mice were injected subcutaneously with saline once daily for three days and food consumption monitored. Mice were blocked and grouped such that body weight and food consumption were not different between or within groups.
Daily food consumption and body weight were measured daily for 10 days. […] It was therefore concluded that the data from this mouse study supports the hypothesis that DAT0115 would be a good clinical candidate.

[4] = mouse, in vivo, 1 mg/kg
Description: This was followed by ion exchange chromotography on a Resource S column using a 0-1M salt gradient in 20 mM acetate pH5.0. Fractions containing the desired protein were then combined and buffer exchanged into 100 mM NaCl, 20 mM citrate pH6.2. Protein was filter sterilised, buffer exchanged and endotoxin removed ant tested prior to use in vivo. […] At predose, 0.25, 0.5, 1, 4, 7, 12, 24, 36, 48 and 60 hours after dosing for the iv doses and predose, 0.5, 1, 4, 7, 12, 24, 36, 48 and 60 hours after dosing for the sc doses blood samples were collected by terminal bleed and plasma prepared. Plasma samples were frozen and later defrosted for analysis of DAT0115, DAT0116 or DAT0117 levels as appropriate by solid phase extraction and LC/MS/MS to detect the presence of a fragment of the protein (from the exendin-4 section of the protein). Calculated plasma levels were then used to fit pharmacokinetic parameters using WinNonLin software. Half life after subcutaneous and intravenous administration and bioavailability is outlined in the table below. It was concluded from the results (see table 7 below) that all three compounds show desirable pharmacokinetic parameters in a mouse model of type II diabetes.

Question: With “Exendin 4 (G4S linker)3 DOM7h-14 dAb fusion [DAT0115]” as the substance, how does the Bioavailability [1] read?
Answer: 99%

Question: What about the Cl ([1]; iv) of the same substance?
Answer: 3.3 mL/h/kg

Question: What about the MRT ([1]; iv) of the same substance?
Answer: 46 h

Question: What about the T1/2 ([1]; iv) of the same substance?
Answer: 67 h

Question: And the Vz ([1]; iv)?
Answer: 0.327 L/kg

Question: And the Cl ([1]; sc)?
Answer: 3.1 mL/h/kg

Question: And the MRT ([1]; sc)?
Answer: 98 h

Question: And the T1/2 ([1]; sc)?
Answer: 68 h

Question: What about the Vz ([1]; sc) of the same substance?
Answer: 0.306 L/kg

Question: What about the Kd [2] of the same substance?
Answer: 2000 nM

Question: And the body weight [3]?
Answer: dose dependent reduction

Question: What about the food consumption [3] of the same substance?
Answer: dose dependent reduction

Question: What about the Bioavailability [4] of the same substance?
Answer: 65%

Question: What about the “Half-life after intravenous administration” value ([4]; iv) of the same substance?
Answer: 13.8

Question: And the “Half-life after subcutaneous administration” value ([4]; sc)?
Answer: 18.6
